Reference: patent publication US20250277029A1 (Amgen, published 2025)
Where a chain is given by its changes, count along the chain named.

B1: LIBC523748-1 (antibody, V domains shown)
VH: QVQLQESGPGLVKPSQTLSLTCTVSGGSIRRGGDYWSWIRQHPGKGLEWIGHVYYTGSTKYNPSFEGRATISVKTYKNQFSLKLSSVTAADTAVYYCARDYDILTGYSYYYYGMDVWGQGTTVTVSS
VL: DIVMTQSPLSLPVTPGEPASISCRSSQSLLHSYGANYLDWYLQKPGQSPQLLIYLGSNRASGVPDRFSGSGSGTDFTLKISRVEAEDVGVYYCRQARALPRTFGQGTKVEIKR
B2: LIBC523857-1 (antibody, V domains shown)
VH: B1 VH with V53I, Y55Q, S58Q, K60A, S64R, F65L, K74N
VL: DIVMTQSPLSLPVTPGEPASISCRSSQSLLSSTGANYLDWYLQKPGQSPQLLIYLGSNRASGVPDRFSGSGSGTDFTLKISRVEAEDVGVYYCRQAVELPRTFGQGTKVEIKR
B3: LIBC523862-1 (antibody, V domains shown)
VH: B1 VH with V53I, Y55Q, K60A, F65L, E66K, K74N
VL: B2 VL with S31H, L38V, V97I, E98A
B4: LIBC523868-1 (antibody, V domains shown)
VH: B1 VH with T56E, K60A, G67D, K74N
VL: B2 VL with S31T, T33Y, A35I, L38V, R94M, V97R, E98Q, L99I
B5: LIBC523760-1 (antibody, V domains shown)
VH: B1 VH with Y55Q, S64K, E66K, K74N
VL: B2 VL with S31T, T33S, L38V, E98G, L99T
B6: LIBC523815-1 (antibody, V domains shown)
VH: B1 VH with V53I, Y55Q, T56S, S58Q, F65L, E66K, G67D, K74N
VL: B2 VL with S31T, T33S, L38V, V97R, L99Q
B7: LIBC523813-1 (antibody, V domains shown)
VH: B1 VH with S58Q, K60A, S64K, E66K, G67D
VL: B2 VL with T33S, L38V, R94M, V97R, E98G, L99I
notes: also called LIBC523813-1 + VK2 germline fix
B8: LIBC523603-1 (antibody, V domains shown)
VH: QVQLQESGPGLVKPSQTLSLTCTVSGGSIRRGGDYWAWIRQHPGKGLEWIGHVYQSGQTAYNPNFENRATISVNTYKNQFSLKLSSVTAADTAVYYCARDYDAVSGYSYYYYGMDVWGQGTTVTVSS
VL: B2 VL with T33Y, A35N, L38V, L55Q, E98G
B9: LIBC523670-1 (antibody, V domains shown)
VH: B8 VH with S56T, F65L, N67S, D100N, A103V, V104L
VL: B2 VL with S31T, T33Y, L55Q, R94M, V97L, E98Q, L99I
notes: also called LIBC523670-1 + VK2 germline fix

target: T1, GFP-fused huCB1-SMALP (human CB1 in styrene maleic acid lipoparticles) (human, UniProt P21554 1-472); test: flow cytometry, yeast-displayed IgG, GFP MFI
T1 construct: Prepared as in Luna V. et al. 2018; also called huCB1-GFP-SMALP; wtCB1-SMALP; not shown: GFP fusion
T1 sequence (P21554 whole entry, the tested form may be a part): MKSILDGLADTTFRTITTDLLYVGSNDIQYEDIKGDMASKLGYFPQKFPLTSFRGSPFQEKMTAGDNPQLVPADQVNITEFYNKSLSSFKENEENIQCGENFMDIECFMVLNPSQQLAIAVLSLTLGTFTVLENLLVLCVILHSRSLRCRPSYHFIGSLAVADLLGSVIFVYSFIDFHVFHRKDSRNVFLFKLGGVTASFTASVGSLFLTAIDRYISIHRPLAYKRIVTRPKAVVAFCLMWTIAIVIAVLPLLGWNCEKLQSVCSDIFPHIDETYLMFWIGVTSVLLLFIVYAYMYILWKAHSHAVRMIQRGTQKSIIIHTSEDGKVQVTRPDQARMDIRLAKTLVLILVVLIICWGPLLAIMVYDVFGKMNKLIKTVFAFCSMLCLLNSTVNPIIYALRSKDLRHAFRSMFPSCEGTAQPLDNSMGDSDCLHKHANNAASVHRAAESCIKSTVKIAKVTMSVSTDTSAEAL

Row | Binder | 100 nM huCB1-SMALP binding (normalized to 10D10) [fold]
1 | B1 | 6.12
2 | B2 | 4.71
3 | B3 | 3.97
4 | B4 | 4.21
5 | B5 | 5.7
6 | B6 | 4.55
7 | B7 | 6.32
8 | B8 | 4.05
9 | B9 | 5.42

target: T2, His-tagged huCB1-ND (human CB1 in nanodisc) (human); test: flow cytometry, yeast-displayed IgG, binding/display ratio
T2 construct: CB1 construct of Cell 167(3) (2016) 750-762 expressed in Sf9 cells; POPC:MSP1D1:CB1 480:8:1; also called CB1-nanodisc; huCB1-Nanodisc; not shown: histidine purification tag
T2 sequence (P21554 99-414): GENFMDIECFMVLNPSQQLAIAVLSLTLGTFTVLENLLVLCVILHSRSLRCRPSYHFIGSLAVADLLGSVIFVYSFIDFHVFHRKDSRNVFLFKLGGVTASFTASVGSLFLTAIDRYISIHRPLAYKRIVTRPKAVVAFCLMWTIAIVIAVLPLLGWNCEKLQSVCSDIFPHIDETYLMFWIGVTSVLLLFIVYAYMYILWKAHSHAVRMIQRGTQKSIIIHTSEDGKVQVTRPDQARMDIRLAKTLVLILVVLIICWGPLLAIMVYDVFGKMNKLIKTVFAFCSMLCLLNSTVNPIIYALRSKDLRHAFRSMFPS

Row | Binder | relative binding to 0.2 nM huCB1-ND (relative to 10D10N35Y) [fold]
10 | B1 | 4.41
11 | B2 | 4.05
12 | B3 | 5.07
13 | B4 | 6.28
14 | B5 | 4.19
15 | B6 | 6.15
16 | B7 | 3.38
17 | B8 | 6.05
18 | B9 | 7.46

target: T2, His-tagged huCB1-ND (human CB1 in …); test: flow cytometry, yeast-displayed IgG, huCB1-ND over empty-ND

Row | Binder | specific huCB1 binding (CB1 ND/Empty ND ratio) [ratio]
19 | B1 | 5.33
20 | B2 | 13.9
21 | B3 | 13.6
22 | B4 | 13.3
23 | B5 | 7.21
24 | B6 | 14.8
25 | B7 | 5.79
26 | B8 | 19.4
27 | B9 | 23
